B1: Flag-eIF2β, wild type [S. cerevisiae] / eIF2γ in yeast whole-cell extracts [yeast (endogenous in yeast whole-cell extracts)] (parent complex)
chain 1: MSSDLAAELGFDPALKKKKKTKKVIPDDFDAAVNGKENGSGDDLFAGLKKKKKKSKSVSADAEAEKEPTDDIAEALGELSLKKKKKKTKDSSVDAFEKELAKAGLDNVDAESKEGTPSANSSIQQEVGLPYSELLSRFFNILRTNNPELAGDRSGPKFRIPPPVCLRDGKKTIFSNIQDIAEKLHRSPEHLIQYLFAELGTSGSVDGQKRLVIKGKFQSKQMENVLRRYILEYVTCKTCKSINTELKREQSNRLFFMVCKSCGSTRSVSSIKTGFQATVGKRRRM
chain 2: MSDLQDQEPSIIINGNLEPVGEPDIVEETEVVAQETQETQDADKPKKKVAFTGLEEDGETEEEKRKREFEEGGGLPEQPLNPDFSKLNPLSAEIINRQATINIGTIGHVAHGKSTVVRAISGVQTVRFKDELERNITIKLGYANAKIYKCQEPTCPEPDCYRSFKSDKEISPKCQRPGCPGRYKLVRHVSFVDCPGHDILMSTMLSGAAVMDAALLLIAGNESCPQPQTSEHLAAIEIMKLKHVIILQNKVDLMREESALEHQKSILKFIRGTIADGAPIVPISAQLKYNIDAVNEFIVKTIPVPPRDFMISPRLIVIRSFDVNKPGAEIEDLKGGVAGGSILNGVFKLGDEIEIRPGIVTKDDKGKIQCKPIFSNIVSLFAEQNDLKFAVPGGLIGVGTKVDPTLCRADRLVGQVVGAKGHLPNIYTDIEINYFLLRRLLGVKTDGQKQAKVRKLEPNEVLMVNIGSTATGARVVAVKADMARLQLTSPACTEINEKIALSRRIEKHWRLIGWATIKKGTTLEPIA

Variants of: B1
Test: co-immunoprecipitation with FLAG affinity resin, quantified western; yeast whole-cell extracts; three biological replicates; read off a plot
For chain 1 MSSDLAAELGFDPALKKKKKTKKVIPDDFDAAVNGKENGSGDDLFAGLKKKKKKSKSVSADAEAEKEPTDDIAEALGELSLKKKKKKTKDSSVDAFEKELAKAGLDNVDAESKEGTPSANSSIQQEVGLPYSELLSRFFNILRTNNPELAGDRSGPKFRIPPPVCLRDGKKTIFSNIQDIAEKLHRSPEHLIQYLFAELGTAGSVDGQKRLVIAGKFQSKQMENVLRRYILEYVTCKTCKSINTELKREQSNRLFFMVCKSCGSTRSVSSIKTGFQATVGKRRRM [chain 1 S202A, chain 1 K214A], the response was ~0.89 eIF2γ:eIF2β.
For chain 1 MSSDLAAELGFDPALKKKKKTKKVIPDDFDAAVNGKENGSGDDLFAGLKKKKKKSKSVSADAEAEKEPTDDIAEALGELSLKKKKKKTKDSSVDAFEKELAKAGLDNVDAESKEGTPSANSSIQQEVGLPYSELLSRFFNILRTNNPELAGDRSGPKFRIPPPVCLRDGKKTIFSNIQDIAEKLHRSPEHLIQYLFAELGTSGSVDGQKRLVIKGKAQSKAMENVLRRYILEYVTCKTCKSINTELKREQSNRLFFMVCKSCGSTRSVSSIKTGFQATVGKRRRM [chain 1 F217A, chain 1 Q221A], the response was ~0.82 eIF2γ:eIF2β.

Source: PMC4534855 (2015)
